One block for each substance: values may come before it.
Legend:
[1] = target: wnk4_human WNK4 (UniProt Q96J92)
[2] = target: wnk4_human WNK4 (UniProt Q96J92); remark: listed apart in the source
[3] = target: wnk4_human WNK4 (UniProt Q96J92); remark: listed apart in the source
[4] = target: wnk1_human WNK1 (UniProt Q9H4A3)
[5] = target: SLC12A2 (UniProt P55011)
[6] = target: wnk4_human WNK4 (UniProt Q96J92); remark: listed apart in the source
[7] = target: wnk4_human WNK4 (UniProt Q96J92); remark: listed apart in the source
[8] = target: wnk4_human WNK4 (UniProt Q96J92); remark: listed apart in the source
[9] = target: wnk4_human WNK4 (UniProt Q96J92); remark: listed apart in the source
[10] = target: wnk4_human WNK4 (UniProt Q96J92); remark: listed apart in the source
[11] = target: wnk1_human WNK1 (UniProt Q9H4A3); remark: listed apart in the source
[12] = target: SLC12A2 (UniProt P55011); remark: listed apart in the source
[13] = target: wnk4_human WNK4 (UniProt Q96J92); remark: listed apart in the source

Sequence of Serine/threonine-protein kinase OSR1 (Homo sapiens), O95747 D459A (O95747 whole entry D459A): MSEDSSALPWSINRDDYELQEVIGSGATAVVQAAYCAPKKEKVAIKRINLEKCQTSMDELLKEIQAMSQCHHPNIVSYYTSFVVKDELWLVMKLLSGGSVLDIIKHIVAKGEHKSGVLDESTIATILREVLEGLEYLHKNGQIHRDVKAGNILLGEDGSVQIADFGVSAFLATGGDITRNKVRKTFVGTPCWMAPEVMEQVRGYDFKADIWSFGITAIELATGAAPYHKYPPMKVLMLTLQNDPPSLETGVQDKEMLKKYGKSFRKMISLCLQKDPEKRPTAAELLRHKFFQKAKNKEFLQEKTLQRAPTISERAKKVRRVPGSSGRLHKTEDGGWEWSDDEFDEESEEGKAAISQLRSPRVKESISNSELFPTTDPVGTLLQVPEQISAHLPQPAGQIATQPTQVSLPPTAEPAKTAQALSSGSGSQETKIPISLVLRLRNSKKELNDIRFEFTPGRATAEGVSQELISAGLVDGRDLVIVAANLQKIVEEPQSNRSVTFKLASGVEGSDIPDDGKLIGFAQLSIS
Sequence of Serine/threonine-protein kinase OSR1 (Homo sapiens), O95747 L473A (O95747 whole entry L473A): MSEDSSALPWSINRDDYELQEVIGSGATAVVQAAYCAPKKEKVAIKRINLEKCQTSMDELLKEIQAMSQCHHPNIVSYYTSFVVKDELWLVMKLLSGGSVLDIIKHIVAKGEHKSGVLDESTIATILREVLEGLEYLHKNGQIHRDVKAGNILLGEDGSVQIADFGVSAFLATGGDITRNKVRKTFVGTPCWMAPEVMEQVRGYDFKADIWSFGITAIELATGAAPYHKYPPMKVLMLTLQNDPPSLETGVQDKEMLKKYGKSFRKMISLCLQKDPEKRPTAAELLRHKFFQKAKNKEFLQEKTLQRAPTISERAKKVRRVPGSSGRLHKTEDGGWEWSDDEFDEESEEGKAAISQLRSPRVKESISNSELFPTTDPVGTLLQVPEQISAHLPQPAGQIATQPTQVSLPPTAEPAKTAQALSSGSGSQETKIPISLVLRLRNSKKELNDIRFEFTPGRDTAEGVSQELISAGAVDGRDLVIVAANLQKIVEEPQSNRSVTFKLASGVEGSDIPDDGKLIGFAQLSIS
Sequence of wnk4_human WNK4 (Q96J92 whole entry): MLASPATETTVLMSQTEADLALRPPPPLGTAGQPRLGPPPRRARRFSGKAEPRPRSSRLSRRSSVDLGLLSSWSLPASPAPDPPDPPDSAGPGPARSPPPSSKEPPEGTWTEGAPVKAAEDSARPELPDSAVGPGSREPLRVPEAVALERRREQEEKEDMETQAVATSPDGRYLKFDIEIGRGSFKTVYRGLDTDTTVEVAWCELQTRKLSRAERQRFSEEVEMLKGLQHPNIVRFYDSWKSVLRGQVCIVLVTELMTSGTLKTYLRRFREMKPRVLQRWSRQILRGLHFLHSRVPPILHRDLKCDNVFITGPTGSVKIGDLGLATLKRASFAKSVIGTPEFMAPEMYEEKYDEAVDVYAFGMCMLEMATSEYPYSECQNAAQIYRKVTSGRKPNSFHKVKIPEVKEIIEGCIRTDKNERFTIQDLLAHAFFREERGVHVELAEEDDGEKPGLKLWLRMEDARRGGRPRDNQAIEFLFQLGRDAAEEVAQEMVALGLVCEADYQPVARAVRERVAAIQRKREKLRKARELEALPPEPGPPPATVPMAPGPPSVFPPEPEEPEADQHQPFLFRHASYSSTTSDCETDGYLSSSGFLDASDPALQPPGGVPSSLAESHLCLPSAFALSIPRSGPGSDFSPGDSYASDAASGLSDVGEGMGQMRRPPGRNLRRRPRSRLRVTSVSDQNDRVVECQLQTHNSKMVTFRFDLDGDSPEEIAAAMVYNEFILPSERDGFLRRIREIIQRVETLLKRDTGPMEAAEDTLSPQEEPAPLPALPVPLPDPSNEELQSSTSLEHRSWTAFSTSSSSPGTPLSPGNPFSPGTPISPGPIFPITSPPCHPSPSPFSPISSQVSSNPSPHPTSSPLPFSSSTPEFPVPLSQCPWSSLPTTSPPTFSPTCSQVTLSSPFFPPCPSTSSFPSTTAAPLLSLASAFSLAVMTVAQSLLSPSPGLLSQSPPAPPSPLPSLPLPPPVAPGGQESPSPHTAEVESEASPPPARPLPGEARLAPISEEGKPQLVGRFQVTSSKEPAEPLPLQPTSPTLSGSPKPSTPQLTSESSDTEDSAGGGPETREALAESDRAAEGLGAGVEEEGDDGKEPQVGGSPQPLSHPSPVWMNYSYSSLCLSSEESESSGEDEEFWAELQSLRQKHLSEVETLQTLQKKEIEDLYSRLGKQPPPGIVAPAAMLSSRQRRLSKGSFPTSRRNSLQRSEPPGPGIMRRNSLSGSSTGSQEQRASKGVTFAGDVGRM
Sequence of SLC12A2 (P55011 whole entry): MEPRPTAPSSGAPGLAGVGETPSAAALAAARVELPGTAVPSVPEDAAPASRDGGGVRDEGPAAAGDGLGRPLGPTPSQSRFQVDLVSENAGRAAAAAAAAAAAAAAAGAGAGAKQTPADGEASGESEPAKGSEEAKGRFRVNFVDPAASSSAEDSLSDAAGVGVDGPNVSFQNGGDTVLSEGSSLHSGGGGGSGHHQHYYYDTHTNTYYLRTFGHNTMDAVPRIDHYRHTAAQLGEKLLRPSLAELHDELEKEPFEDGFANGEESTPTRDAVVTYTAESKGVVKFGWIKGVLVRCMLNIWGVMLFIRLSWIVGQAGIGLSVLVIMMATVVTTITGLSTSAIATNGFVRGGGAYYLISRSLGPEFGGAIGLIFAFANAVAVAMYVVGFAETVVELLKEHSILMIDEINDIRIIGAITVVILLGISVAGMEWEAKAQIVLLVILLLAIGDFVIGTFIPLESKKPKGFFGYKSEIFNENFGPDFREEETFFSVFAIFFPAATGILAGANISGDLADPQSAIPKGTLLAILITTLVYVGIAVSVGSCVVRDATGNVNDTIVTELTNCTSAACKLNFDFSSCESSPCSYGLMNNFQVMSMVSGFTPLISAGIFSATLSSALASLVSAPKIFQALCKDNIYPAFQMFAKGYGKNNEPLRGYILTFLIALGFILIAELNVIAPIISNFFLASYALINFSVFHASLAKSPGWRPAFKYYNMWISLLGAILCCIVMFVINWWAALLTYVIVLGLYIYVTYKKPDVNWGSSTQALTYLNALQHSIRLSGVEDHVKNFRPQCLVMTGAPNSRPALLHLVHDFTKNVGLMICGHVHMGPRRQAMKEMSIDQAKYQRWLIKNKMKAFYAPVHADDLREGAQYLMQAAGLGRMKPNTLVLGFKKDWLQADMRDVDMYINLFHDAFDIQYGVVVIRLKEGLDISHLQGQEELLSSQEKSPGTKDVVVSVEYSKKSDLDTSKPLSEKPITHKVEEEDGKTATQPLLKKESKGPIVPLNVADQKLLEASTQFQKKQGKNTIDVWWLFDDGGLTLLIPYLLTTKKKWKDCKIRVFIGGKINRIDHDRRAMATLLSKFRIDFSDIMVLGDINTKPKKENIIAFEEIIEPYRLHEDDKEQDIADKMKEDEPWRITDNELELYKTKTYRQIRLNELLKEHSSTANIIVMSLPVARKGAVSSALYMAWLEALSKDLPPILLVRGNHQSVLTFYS
Sequence of Serine/threonine-protein kinase OSR1 (Homo sapiens), O95747 A471L (O95747 whole entry A471L): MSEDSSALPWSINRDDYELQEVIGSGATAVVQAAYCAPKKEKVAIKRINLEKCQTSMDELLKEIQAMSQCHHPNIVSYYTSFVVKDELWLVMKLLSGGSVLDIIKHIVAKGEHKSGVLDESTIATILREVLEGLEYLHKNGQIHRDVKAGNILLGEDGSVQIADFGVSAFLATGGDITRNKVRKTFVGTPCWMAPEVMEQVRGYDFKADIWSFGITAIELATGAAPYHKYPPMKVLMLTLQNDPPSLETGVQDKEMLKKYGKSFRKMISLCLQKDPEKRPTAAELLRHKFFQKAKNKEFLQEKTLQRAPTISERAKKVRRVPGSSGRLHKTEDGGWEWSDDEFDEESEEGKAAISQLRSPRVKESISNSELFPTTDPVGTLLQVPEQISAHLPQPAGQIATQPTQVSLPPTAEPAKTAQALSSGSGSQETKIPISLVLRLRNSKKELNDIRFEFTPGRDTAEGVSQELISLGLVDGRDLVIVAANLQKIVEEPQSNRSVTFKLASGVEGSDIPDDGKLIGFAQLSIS
Sequence of Serine/threonine-protein kinase OSR1 (Homo sapiens), O95747 L468F (O95747 whole entry L468F): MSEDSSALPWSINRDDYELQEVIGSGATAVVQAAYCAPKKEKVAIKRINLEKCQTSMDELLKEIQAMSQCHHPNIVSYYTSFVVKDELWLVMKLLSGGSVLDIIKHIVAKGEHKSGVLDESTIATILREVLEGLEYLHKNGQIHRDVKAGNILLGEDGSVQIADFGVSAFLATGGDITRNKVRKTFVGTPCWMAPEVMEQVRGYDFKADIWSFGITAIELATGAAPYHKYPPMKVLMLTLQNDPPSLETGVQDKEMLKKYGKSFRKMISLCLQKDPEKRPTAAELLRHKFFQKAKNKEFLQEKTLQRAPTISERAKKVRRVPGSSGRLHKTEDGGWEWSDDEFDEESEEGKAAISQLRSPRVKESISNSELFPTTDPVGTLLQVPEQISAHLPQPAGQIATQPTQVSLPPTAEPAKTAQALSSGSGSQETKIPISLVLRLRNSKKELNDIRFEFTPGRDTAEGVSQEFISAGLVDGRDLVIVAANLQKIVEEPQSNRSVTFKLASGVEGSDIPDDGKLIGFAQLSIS

effect of a mutation on the interaction [1]: decreasing interaction
Substance: Serine/threonine-protein kinase OSR1 (Homo sapiens), O95747 A471L

effect of a mutation on the interaction [2]: decreasing interaction
Substance: Serine/threonine-protein kinase OSR1 (Homo sapiens), O95747 D449A

effect of a mutation on the interaction [3]: disrupting interaction | effect of a mutation on the interaction [4]: disrupting interaction | effect of a mutation on the interaction [5]: disrupting interaction
Substance: Serine/threonine-protein kinase OSR1 (Homo sapiens), O95747 D459A

effect of a mutation on the interaction [6]: decreasing interaction
Substance: Serine/threonine-protein kinase OSR1 (Homo sapiens), O95747 E446A

effect of a mutation on the interaction [7]: disrupting interaction
Substance: Serine/threonine-protein kinase OSR1 (Homo sapiens), O95747 E467A

effect of a mutation on the interaction [8]: disrupting interaction
Substance: Serine/threonine-protein kinase OSR1 (Homo sapiens), O95747 I450A

effect of a mutation on the interaction [9]: disrupting interaction
Substance: Serine/threonine-protein kinase OSR1 (Homo sapiens), O95747 L468F

effect of a mutation on the interaction [10]: disrupting interaction | effect of a mutation on the interaction [11]: disrupting interaction | effect of a mutation on the interaction [12]: disrupting interaction
Substance: Serine/threonine-protein kinase OSR1 (Homo sapiens), O95747 L473A

effect of a mutation on the interaction [13]: decreasing interaction
Substance: Serine/threonine-protein kinase OSR1 (Homo sapiens), O95747 R451A
